Results on two molecules are retold here after US20080038775A1 (published 2008).

For orientation: IC50 means the concentration that inhibits the measured activity by half. The low end stands for greater potency, the high end for weaker potency.

The target of assay [1] is T1, LRP5prop3,4LBD V5His (propellers 3 and 4 and ligand binding domain of LRP5, amino acids 642 to 1376 of … (UniProt O75197 642-1376)).
T1 construct: range 642-1376; Secreted from HEK293T cells co-transfected with RAP; also called LRP5VHis prop3,4; not shown: V5 (and His) tag from the pcDNA3.1/V5 expression vector
T1 sequence (looked up): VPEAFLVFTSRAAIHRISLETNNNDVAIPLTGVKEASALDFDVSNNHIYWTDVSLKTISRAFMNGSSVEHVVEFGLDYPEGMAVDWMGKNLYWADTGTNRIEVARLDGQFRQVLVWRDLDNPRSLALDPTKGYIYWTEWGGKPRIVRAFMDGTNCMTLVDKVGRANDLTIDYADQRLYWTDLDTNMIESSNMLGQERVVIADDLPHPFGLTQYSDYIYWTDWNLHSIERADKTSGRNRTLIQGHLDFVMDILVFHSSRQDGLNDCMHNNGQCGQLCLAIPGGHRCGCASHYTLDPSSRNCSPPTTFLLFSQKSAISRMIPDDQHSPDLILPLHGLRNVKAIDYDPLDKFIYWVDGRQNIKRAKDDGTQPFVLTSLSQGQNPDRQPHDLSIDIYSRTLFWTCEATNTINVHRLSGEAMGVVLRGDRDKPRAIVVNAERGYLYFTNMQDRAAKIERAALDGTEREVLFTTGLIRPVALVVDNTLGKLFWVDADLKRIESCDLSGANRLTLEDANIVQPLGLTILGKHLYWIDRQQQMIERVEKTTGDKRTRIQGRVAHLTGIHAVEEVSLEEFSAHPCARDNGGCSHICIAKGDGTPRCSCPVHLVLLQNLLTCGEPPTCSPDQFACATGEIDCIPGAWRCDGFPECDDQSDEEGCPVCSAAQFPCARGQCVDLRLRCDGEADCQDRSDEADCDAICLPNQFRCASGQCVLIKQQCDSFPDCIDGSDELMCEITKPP
The experiment in a line: TR-FRET competition; untagged R&D Dkk1 titrated against myc-tagged Dkk1 binding to LRP5prop34LBD. The protocol: (§1) The time resolved fluorescence resonance energy transfer (TR-FRET) platform was chosen to develop an assay for Dkk1-LRP5prop34LBD interaction because the TR-FRET assay is highly sensitive, easy to set up and capable of detecting weak interactions. For this assay, two labeled molecules are added to the system. If an interaction occurs, the labels are brought into close proximity and energy transfer occurs to release energy at specific wavelengths that can be detected. For detection of interaction between Dkk1 and LRP5prop34LBD, the Dkk1 (tagged with myc) is effectively labeled using a Cy5 labeled monoclonal anti-myc antibody. The LRP5prop34LBD (tagged with V5) is effectively labeled using a Europium labeled monoclonal anti-V5 antibody. Europium is excited at 340 nm and re-emits energy at 615 nm. Cy5 absorbs at 615 nm and emits energy at 665 nm which is detected. The measurement was conducted on a Wallac EnVision 2100 Multilabel Reader from PerkinElmer Life Science. […] The interaction between Dkk1 and LRP5prop3,4LBD is expressed as the ratio of fluorescence intensity at 665 nm over 615 nm, which represents the energy transfer from the europium to Cy5 dye. […]
Dkk1 without a myc tag was purchased from R&D Inc. and is a Dkk1 synthesized in a baculovirus/insect cell system. […] The data were analyzed with Grafit 5 (Erithacus Software).
A general note: In TR-FRET formats the signal depends on donor and acceptor labels being close together.

Assay [2] deals with LRP5 protein (form not named at the place) (UniProt O75197). The experiment in a line: cell-based or functional assay.
Assay [3] addresses T1, LRP5prop3,4LBD V5His (propellers 3 and …). Put plainly: TR-FRET (anti-V5-Eu / anti-myc-Cy5), apparent Kd, concentrations of Dkk1 and LRP5prop34LBD varied, 50 mM PIPES pH 6.5. The protocol:
as §1, with “The LRP5prop34LBD (tagged with V5) is effectively labeled using a Europium labeled monoclonal anti-V5 antibody. Europium is excited at 340 nm and re-emits energy at 615 nm.” left out
Kdapp Determination. The observed Kdapp was determined by varying concentrations of Dkk1 and LRP5prop34LBD in the reaction mixture containing 50 mM PIPES (pH 6.5), 0.5 mM DTT, 0.01% Tween-20, 0.5 nM V5-mAb-Eu, and 15 nM ,myc-Ab-Cy5. […] Kd-value determined here is a Kdapp-value as the antibody concentration is limiting in the assay. […]

B1: Recombinant human Dkk1 from R&D Systems (Cat. No. 1096-DK/CF), baculovirus/insect cell derived (ligand, UniProt O94907 32-266, looked up)
chain: TLNSVLNSNAIKNLPPPLGGAAGHPGSAVSAAPGILYPGGNKYQTIDNYQPYPCAEDEECGTDEYCASPTRGGDAGVQICLACRKRRKRCMRHAMCCPGNYCKNGICVSSDQNHFRGEIEETITESFGNDHSTLDGYSRRTTLSSKMYHTKGQEGSVCLRSSDCASGLCCARHFWSKICKPVLKEGQVCTKHRRKGSHGLEIFQRCYCGEGLSCRIQKDHHQASNSSRLHTCQRH
modifications: 125I-labelled in the radioligand assay of Example 10 only
notes: Bought protein; no myc tag; also called R&D Dkk1; R&D Systems Dkk1
With B1, the IC50 in assay [1] was 1.42 nM.

B2: Dkk1mycHis (wild-type human Dkk1 with C-terminal c-myc and His6 tags, secreted by HEK293T cells; used purified or as conditioned media) (ligand)
chain: ATLNSVLNSNAIKNLPPPLGGAAGHPGSAVSAAPGILYPGGNKYQTIDNYQPYPCAEDEECGTDEYCASPTRGGDAGVQICLACRKRRKRCMRHAMCCPGNYCKNGICVSSDQNHFRGEIEETITESFGNDHSTLDGYSRRTTLSSKMYHTKGQEGSVCLRSSDCASGLCCARHFWSKICKPVLKEGQVCTKHRRKGSHGLEIFQRCYCGEGLSCRIQKDHHQASNSSRLHTCQRHSRGPFEQKLISEEDLNMHTGHHHHHH
modifications: N-linked glycosylation (mammalian pattern); 125I-labelled by the chloramine-T method only in the radioligand assay of Example 10
notes: Secreted protein; also called WT; wild-type Dkk1
B2 displayed an activity in the TCF luciferase assay compared with baculovirus Dkk1 (FIG. 4) (% greater activity than R&D Systems Dkk1) in assay [2] of 25. For the same molecule, the Kd in assay [3] was found to be 11.8 nM.
